# doi:10.1101/2021.01.13.426575
# B1: DPP9, short isoform (DPP9S), co-expressed with CARD8 for cryo-EM, Q86TI2-1 1-863 (enzyme)
# chain: MATTGTPTADRGDAAATDDPAARFQVQKHSWDGLRSIIHGSRKYSGLIVNKAPHDFQFVQKTDESGPHSHRLYYLGMPYGSRENSLLYSEIPKKVRKEALLLLSWKQMLDHFQATPHHGVYSREEELLRERKRLGVFGITSYDFHSESGLFLFQASNSLFHCRDGGKNGFMVSPMKPLEIKTQCSGPRMDPKICPADPAFFSFINNSDLWVANIETGEERRLTFCHQGLSNVLDDPKSAGVATFVIQEEFDRFTGYWWCPTASWEGSEGLKTLRILYEEVDESEVEVIHVPSPALEERKTDSYRYPRTGSKNPKIALKLAEFQTDSQGKIVSTQEKELVQPFSSLFPKVEYIARAGWTRDGKYAWAMFLDRPQQWLQLVLLPPALFIPSTENEEQRLASARAVPRNVQPYVVYEEVTNVWINVHDIFYPFPQSEGEDELCFLRANECKTGFCHLYKVTAVLKSQGYDWSEPFSPGEDEFKCPIKEEIALTSGEWEVLARHGSKIWVNEETKLVYFQGTKDTPLEHHLYVVSYEAAGEIVRLTTPGFSHSCSMSQNFDMFVSHYSSVSTPPCVHVYKLSGPDDDPLHKQPRFWASMMEAASCPPDYVPPEIFHFHTRSDVRLYGMIYKPHALQPGKKHPTVLFVYGGPQVQLVNNSFKGIKYLRLNTLASLGYAVVVIDGRGSCQRGLRFEGALKNQMGQVEIEDQVEGLQFVAEKYGFIDLSRVAIHGWSYGGFLSLMGLIHKPQVFKVAIAGAPVTVWMAYDTGYTERYMDVPENNQHGYEAGSVALHVEKLPNEPNRLLILHGFLDENVHFFHTNFLVSQLIRAGKPYQLQIYPNERHSIRCPESGEHYEVTLLHFLQEYL
# Target: DPP9, short isoform (DPP9S), co-expressed with CARD8 for cryo-EM (human), Q86TI2
# Test: cryo-EM structure
# Conditions: remark: other sources report otherwise
binder,measurement,value
B1,stoichiometry N,2
